{"source": "patent US7019108B2", "about": "“Method and composition for inhibition of angiogenesis and tumor growth using compounds based on a sequence within MMP-2” (priority 2001, dated 2006)", "type_in_all_cases": "in vivo", "key": {"[1]": {"test_system": "βFGF induced angiogenesis", "test": "βFGF induced angiogenesis in the chick CAM assay, systemic Pexstatin", "conditions": "3 day incubation", "method": "A). Filter discs saturated with βFGF were placed on the CAMs of 10 day old chick embryos. Twenty four hours later, the embryos received a single intravenous injection with 50 μg of Pexstatin, control peptide or PBS. At the end of a 3 day incubation period the filter discs and surrounding CAM tissue were removed and angiogenesis was quantified by counting the number of blood vessel branch points within the area of the filter disc.\nB). FIG. 4 illustrates the quantification of the angiogenesis experiment with Pexstatin. Data bars represent the mean+standard errors of 5 to 10 embryos per condition. The angiogenesis index is equal to the number of branch points from experimentally treated embryos minus the number of branch points from CAMs in the absence of βFGF."}, "[2]": {"test_system": "CS-1 melanoma tumor cells", "test": "CS-1 melanoma tumor growth on the CAM of chick embryos, systemic Pexstatin", "method": "CS-1 melanoma tumor cells (5×10^6) were inoculated on the Chorioallantoic Membranes (CAMs) of 10 day old chick embryos. Twenty four hours latter the embryos received a single intravenous injection of 50 μg of Pexstatin peptide or PBS control. At the end of a 7 day incubation period the resulting tumors were resected and wet weights determined. Data bars represent the mean±the standard errors of the tumor weight from 5 to 10 embryos per condition."}, "[3]": {"test_system": "B16 melanoma tumor cells", "test": "Chick embryo experimental metastasis model, B16 melanoma", "conditions": "10 μg/embryo inoculated intravenously with the tumor cells, 12 day old chick embryos, 7 day incubation", "method": "To examine the effects of Pexstatin on melanoma tumor metastasis in vivo, the chick embryo experimental metastasis model was utilized. Briefly, B16 melanoma tumor cells (2.5×10^4) were inoculated intravenously with Pexstatin (10 μg/embryo) or a control peptide in 12 day old chick embryos. In addition, a no treatment control was also added (NT). The Embryos were allowed to incubate for a total of 7 days. At the end of a 7 day incubation period the embryos were sacrificed and the lungs were removed for analysis. The number of melanoma lung lesions were counted for each lobe of the lung. Data bars represent the mean+the standard errors of the metastatic lung lesions from 5 to 10 embryos per condition."}, "[4]": {"test_system": "M21 human melanoma tumor cells", "test": "M21 human melanoma tumor growth in nude mice, systemic Pexstatin", "conditions": "female nude mice, daily injections of 100 μg", "method": "M21 human melanoma tumor cells (2×10^6) were injected subcutaneously into female nude mice. Twenty four hours later the mice were treated daily with injections of 100 μg of Pexstatin MMP-2 peptide or PBS controls. Tumor sizes were monitored daily by caliper measurements. Data bars represent the mean tumor volume+the standard errors at each time point. Tumor volumes were estimated using the formula V=L2×W/2, V=volume, L=length, and W=width."}}, "note": "No end group written: not given here."}
{"sequence": "CIFAGDKFWRC (cysteine pairing not given here) [Pexstatin, eleven amino acid peptide based on MMP-2 positions 582–590 flanked by cysteine residues]", "values": [{"measurement": "toxic side effects in the embryos during the assay period", "setting": "[1]; chick embryo, single i.v. 50 μg", "value": "no toxic side effects were noted"}, {"measurement": "inhibition of βFGF induced angiogenesis (angiogenesis index, branch points) as compared to controls", "setting": "[1]; single intravenous injection of 50 μg, chick CAM", "value": "approximately 90%"}, {"measurement": "toxic side effects during the assay period", "setting": "[2]; chick embryo, single i.v. 50 μg, 7 day incubation", "value": "no toxic side effects were noted"}, {"measurement": "inhibition of CS1 melanoma tumor growth (tumor wet weight) as compared to controls", "setting": "[2]; single intravenous injection of 50 μg, 24 h after inoculation, within 7 days, chick embryo CAM", "value": "approximately 60%"}, {"measurement": "inhibition of experimental B16 melanoma metastasis (lung lesions) as compared to controls", "setting": "[3]", "value": "approximately 80%"}, {"measurement": "toxic side effects during the assay period", "setting": "[4]", "value": "no toxic side effects were noted"}]}
